Here are results for eight substances from patent US20080221021A1, “Novel Corticotropin-Releasing Factor Receptor 1 (Crfr1) Agonist” (Max-Planck-Gesellschaft Zur Forderung Der, priority 2004, published 2008).

pIC50: −log10 of the molar value. Where only a bound is given, the exact number is not on record here.

Experiment [1] concerns the target rat CRFR1α (rat) (UniProt P35353). Nature of the experiment: competition binding against [125I-Tyr0]h/rCRF, SPA; reference compound 6.
Experiment [2] has the same target. Nature of the experiment: competition binding; selectivity for CRFR1 over CRFR2, reference h/rCRF; data not shown.
The target in experiment [3] is mouse CRFR2β (mouse) (UniProt Q60748). The experiment is described as follows: competition binding.
Chain of mouse CRFR2β (mouse) (Q60748 20-411): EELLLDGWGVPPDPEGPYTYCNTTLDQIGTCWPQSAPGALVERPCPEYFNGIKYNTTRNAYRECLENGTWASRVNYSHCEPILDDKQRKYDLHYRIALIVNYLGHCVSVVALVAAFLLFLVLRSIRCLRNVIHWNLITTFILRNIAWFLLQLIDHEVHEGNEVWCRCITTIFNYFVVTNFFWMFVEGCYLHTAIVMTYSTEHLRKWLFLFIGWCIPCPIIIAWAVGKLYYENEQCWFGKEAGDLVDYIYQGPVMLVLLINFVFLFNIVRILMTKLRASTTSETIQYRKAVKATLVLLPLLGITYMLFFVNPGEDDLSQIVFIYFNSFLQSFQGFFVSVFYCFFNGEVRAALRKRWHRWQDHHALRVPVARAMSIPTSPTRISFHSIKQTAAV
The target of experiment [4] is rat CRFR1α (rat) (UniProt P35353). The experiment is described as follows: competition binding.
Chain of rat CRFR1α (rat) (P35353 24-415): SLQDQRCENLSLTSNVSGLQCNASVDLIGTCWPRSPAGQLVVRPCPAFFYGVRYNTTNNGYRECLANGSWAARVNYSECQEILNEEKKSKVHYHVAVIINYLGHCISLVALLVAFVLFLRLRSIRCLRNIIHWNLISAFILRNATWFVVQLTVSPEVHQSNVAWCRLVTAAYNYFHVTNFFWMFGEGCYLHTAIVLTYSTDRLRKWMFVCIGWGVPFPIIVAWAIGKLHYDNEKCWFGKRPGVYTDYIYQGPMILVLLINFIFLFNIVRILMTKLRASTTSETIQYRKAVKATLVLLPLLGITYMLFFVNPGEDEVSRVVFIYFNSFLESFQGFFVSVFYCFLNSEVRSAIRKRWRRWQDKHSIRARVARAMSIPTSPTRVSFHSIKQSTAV
The target of experiment [5] is mouse CRFR2β (mouse) (UniProt Q60748). Nature of the experiment: competition.
Experiment [6] deals with rat CRFR1α (rat) (UniProt P35353). The experiment is described as follows: competition binding (SPA); selectivity for rCRFR1 over mCRFR2β, reference h/rCRF.

Chain of human/rat corticotropin-releasing factor (P06850 154-194): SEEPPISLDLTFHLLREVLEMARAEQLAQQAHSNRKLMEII

In the experiment with rat CRFR1α (rat) [1], “[Ala^40] [Svg^1-12]x[h/rCRF^14-30]x[Svg^30-40] (peptide)” registered a fold increase in affinity against compound 6 above 5 fold.

Substance “[Ala^41]h/rCRF (from UniProt P06850 154-194) (peptide)” yielded a fold increase in CRFR1 selectivity against h/rCRF in the experiment with rat CRFR1α (rat) [2] of 3 fold.

The term pIC50 denotes the negative decadic logarithm of the IC50, by convention in mol/L. Low readings indicate a large IC50, high ones a small IC50. Consider “[Svg^1-12]x[h/rCRF^14-30]x[Svg^30-40] (from UniProt P01144 1-12; P06850 167-183; P01144 30-40)”, for which the values for the pIC50 in the experiment with mouse CRFR2β (mouse) [3] and with rat CRFR1α (rat) [4] were 6.15 and 8.02, respectively.

In the case of “[Svg^1-29]x[h/rCRF^31-41] (from UniProt P01144 1-29; P06850 184-194)”, the figures for the pIC50 with mouse CRFR2β (mouse) [3] and with rat CRFR1α (rat) [4] were 9.01 and 8.74, respectively. Turning to “[h/rCRF^1-13]x[Svg^13-29]x[h/rCRF^31-41] (from UniProt P06850 154-166; P01144 13-29; P06850 184-194)”, the pIC50 is 9.16 with mouse CRFR2β (mouse) [3] and 9.33 with rat CRFR1α (rat) [4]. For “[h/rCRF^1-30]x[Svg^30-40] (from UniProt P06850 154-183; P01144 30-40)”, in that order: 6.48 and 8.70. Take “human/rat corticotropin-releasing factor (from UniProt P06850 154-194)”: the pIC50 with mouse CRFR2β (mouse) [5] is 7.38; with rat CRFR1α (rat) [4], 8.80. In the case of “ovine corticotropin-releasing factor (peptide)”, in the experiment with rat CRFR1α (rat) [6], the fold higher selectivity for CRFR1 than h/rCRF is 3 fold.
